According to US10358638B2, “Method of producing 1,5-pentadiamine using lysine decarboxylase mutant having improved thermal stability” (AJINOMOTO CO., INC., priority 2014, dated 2019):

Key:
[1] = Remaining lysine decarboxylase activity of cell free extract after incubation at 68° C.; assay type: biochemical, Escherichia coli
Method: (§1) The activity of the lysine decarboxylase was measured according to the method described in JP patent application laid-open Publication No. 2008-193899. 0.1 mL of a microbial cell suspension or a treated product thereof was added to 1 mL of a reaction solution containing 100 mM MES-NaOH buffer (pH 6.0), 10 g/L (55 mM) of L-lysine hydrochloride and 26.5 mg/L (0.1 mM) of PLP, and then the reaction mixture was incubated at 37° C. for 5 minutes. 0.1 mL of the reaction solution was collected and added to 1 mL of 1% (v/v) phosphoric acid to stop the reaction. Lysine and 1,5-PD were quantified with HPLC by a post column OPA method (S. R. Vale and M. B. Gloria, Journal Of AOAC International (1997) vol. 80, p. 1006-1012) or a method of quantifying remaining L-lysine using a biosensor BF-5 (Oji Scientific Instruments Co., Ltd.). One unit was defined as an activity that formed 1 μmol of 1,5-PD in one minute under this condition.
A combination mutant for increasing the amount of expressed CadA was constructed using QuikChange™ Site-Directed Mutagenesis Kit (Stratagene). A mutation to alter from Val (GTT) to Ile ([…]) at position 3 was introduced using the plasmid pCadA233 as the template and using oligonucleotides v3i_r (5′-cat gtg att caa tat tgc aat aat gtt cat cta cat tcc tcc tta cg-3′(SEQ ID NO:11)) and v3i_f (5′-cgt aag gag gaa tgt aga tga aca tta ttg caa tat tga atc aca tg-3′ (SEQ ID NO:12)) as primers according to a protocol. The nucleotide sequence of the constructed plasmid was determined by the method described in Example 2 to confirm that the objective mutation had been introduced, and this plasmid was designated as pCadA234. Microbial cells of E. coli JM109/pCadA234 expressing this double mutant CadA234 at high level were cultured to prepare a cell free extract in the same manner as in Example 2. The activity in this cell free extract was 663 U/mL, which was almost the same as that from the strain expressing the wild-type enzyme.
The resulting cell free extract was diluted to 20 fold with 0.1 M MES-NaOH buffer (pH 6.0). Each crude enzyme solution was incubated at 68° C., which is a higher temperature than in Example 2, and the remaining activity was measured over time. After incubation at 68° C. for one hour, the wild-type enzyme was inactivated to 27% while the single mutant enzymes V3I and A590T were inactivated to 47% and 27%, respectively. On the contrary, the double mutant enzyme retained 70% of its activity, and even after 3 hours, still retained about 60% of its activity (FIG. 1). Therefore, it was shown that the double mutation has a synergistic effect and further improved the thermal stability.

[2] = Enzyme activity of culture media of expressing strains after heat treatment with or without disruption; assay type: cell-based, Escherichia coli
Method: as §1
Microbial cells of E. coli JM109/pCadA220 and E. coli JM109/pCadA234 carrying the wild-type CadA and the double mutant CadA, respectively were cultured in the LB medium. Subsequently, 15 mL of the cultured medium was inoculated into 300 mL of culture medium (25 g/L of glucose, 5 g/L of ammonium sulfate, 2 g/L of potassium phosphate, 1 g/L of magnesium sulfate heptahydrate, 20 mg/L of iron sulfate heptahydrate, 20 mg/L of manganese sulfate pentahydrate, 1 mg/L of thiamine hydrochloride, 0.45 g/L of hydrolyzed soybeans, pH 7.0) in a 500 mL jar fermenter (manufactured by ABLE & Biott Co., Ltd.), and cultured with ventilation at 300 mL/minute while stirring at 250 rpm at 30° C. for 12 hours. Culture media containing 10.1 g/L and 10.9 g/L of microbial cells in terms of dry microbial cell weight were able to be prepared for E. coli JM109/pCadA220 and E. coli JM109/pCadA234, respectively. For the purpose of improving substrate permeability, the pH value was adjusted to 5.5, and subsequently the culture media were incubated at 55° C. and 60° C., and then the culture media were directly used to measure the activity after the incubation.
Since the lysine decarboxylase is expressed within the microbial cell, when the microbial cell is used directly, lysine cannot react with the lysine decarboxylase, and the efficiency of a decarboxylation reaction is very poor. […] However, the wild-type enzyme was inactivated during the incubation when heated excessively. The mutated enzyme having the improved thermal stability could stably keep its activity even when using conditions where the wild-type enzyme was easily inactivated as shown in Example 2. When the microbial cells carrying such a mutated enzyme were used, efficient treatment in a short period of time was possible. This has shown that the mutated enzyme not only can act at higher temperature upon reaction but also can be easily used when the microbial cell is directly used.

[3] = Inhibition of enzyme activity by iron ion and effect of chelating agent EDTA; assay type: biochemical, Escherichia coli
Method: as §1
Cell free extracts were prepared from the strain expressing wild-type CadA and the strain overexpressing double mutant CadA, respectively in the same manner as in Examples 2 and 3. Using the resulting cell free extract, iron sulfate heptahydrate (Nacalai Tesque Inc.) at a final concentration of […] (2 mM) was added to the composition shown in Example 1, and an inhibitory effect was measured. […]

[4] = Lysine decarboxylation reaction (1,5-PD production) in the presence of chelating agent; parameters: species or system Escherichia coli; settings: 0.1 mM iron sulfate, 0.3 mM EDTA added, 37° C., 16 hours
Method: In the same manner as in Example 4, microbial cells of E. coli JM109/pCadA234 (double mutant expressing CadA at high level) were cultured, the cultured medium was prepared, and after completing the cultivation, incubated at 60° C. for one hour. The activity after incubation was measured, and the cultured medium was diluted so that the enzyme activity became 380 units/mL. 30 mL of this cultured medium containing the enzyme was added to 270 mL of a reaction solution containing 250 g/L of lysine hydrochloride (Ajinomoto Co., Ltd.), 26.5 mg/L of pyridoxal phosphate, 27.8 mg/L (0.1 mM) of iron sulfate heptahydrate and 111.6 mg/L (0.3 mM) of disodium dihydrogen ethylenediaminetetraacetate (EDTA), and the mixture was reacted at 37° C. for 16 hours. No EDTA was added in a control reaction. The pH value was 5.3 when the reaction was started, and elevated with progress of the reaction, but was kept at 7.0 by adding 30% (v/v) sulfuric acid when the pH value reached 7.0.
On the other hand, when EDTA was added, the inhibition of the reaction is restored and lysine was completely consumed. When EDTA was added, 135 g/L of 1,5-PD was formed and lysine was converted at a yield of 98%. […]

[5] = Incubation at 55° C. for 1 h, Disruption
[6] = Incubation at 55° C. for 1 h, physical treatment None
[7] = Incubation at 55° C. for 3 h, Disruption
[8] = Incubation at 55° C. for 3 h, physical treatment None
[9] = Incubation at 60° C. for 1 h, Disruption
[10] = Incubation at 60° C. for 1 h, physical treatment None
[11] = No heat treatment, physical treatment None

B1: pCadA234: lysine decarboxylase (CadA) V3I/A590T double mutant (protein, UniProt P0A9H3 1-715, looked up, variant V3I A590T)
Inducible lysine decarboxylase: MNIIAILNHMGVYFKEEPIRELHRALERLNFQIVYPNDRDDLLKLIENNARLCGVIFDWDKYNLELCEEISKMNENLPLYAFANTYSTLDVSLNDLRLQISFFEYALGAAEDIANKIKQTTDEYINTILPPLTKALFKYVREGKYTFCTPGHMGGTAFQKSPVGSLFYDFFGPNTMKSDISISVSELGSLLDHSGPHKEAEQYIARVFNADRSYMVTNGTSTANKIVGMYSAPAGSTILIDRNCHKSLTHLMMMSDVTPIYFRPTRNAYGILGGIPQSEFQHATIAKRVKETPNATWPVHAVITNSTYDGLLYNTDFIKKTLDVKSIHFDSAWVPYTNFSPIYEGKCGMSGGRVEGKVIYETQSTHKLLAAFSQASMIHVKGDVNEETFNEAYMMHTTTSPHYGIVASTETAAAMMKGNAGKRLINGSIERAIKFRKEIKRLRTESDGWFFDVWQPDHIDTTECWPLRSDSTWHGFKNIDNEHMYLDPIKVTLLTPGMEKDGTMSDFGIPASIVAKYLDEHGIVVEKTGPYNLLFLFSIGIDKTKALSLLRALTDFKRAFDLNLRVKNMLPSLYREDPEFYENMRIQELTQNIHKLIVHHNLPDLMYRAFEVLPTMVMTPYAAFQKELHGMTEEVYLDEMVGRINANMILPYPPGVPLVMPGEMITEESRPVLEFLQMLCEIGAHYPGFETDIHGAYRQADGRYTVKVLKEESKK
With B1 the “remaining activity after incubation at 68° C. for one hour” value ([1]; 68° C., 1 hour, FIG. 1) was 70%, the “remaining activity after incubation at 68° C. for 3 hours” value ([1]; 68° C., 3 hours, FIG. 1) was “about 60%” and the “activity in cell free extract” value ([1]; before incubation) was 663 U/mL. The Enzyme activity [2, 5] was 758 units/ml, the Relative activity [2, 5] was 98.4% and the Enzyme activity [2, 6] was 475 units/ml. For the same molecule, the Relative activity [2, 6] was 61.7%, the Enzyme activity [2, 7] was 659 units/ml and the Relative activity [2, 7] was 85.5%. For the same molecule, the Enzyme activity [2, 8] was 601 units/ml, the Relative activity [2, 8] was 78.0% and the Enzyme activity [2, 9] was 754 units/ml. It also gave a Relative activity [2, 9] of 97.9%, an Enzyme activity [2, 10] of 426 units/ml and a Relative activity [2, 10] of 55.3%. For the same molecule, the Enzyme activity ([2]; No heat treatment, Disruption) was 770 units/ml, the Relative activity ([2]; No heat treatment, Disruption) was 100% and the Enzyme activity [2, 11] was 16.0 units/ml. For the same molecule, the Relative activity [2, 11] was 2.1%, the “activity with 2 mM iron ion, of the activity when no iron ion was added” value ([3]; 2 mM iron ion, no EDTA) was 64.7% and the Enzyme activity ([3]; FeSO4 2 mM, EDTA 0.5 mM) was 677 units/ml. For the same molecule, the Enzyme activity ([3]; FeSO4 2 mM, EDTA 1 mM) was 680 units/ml, the Enzyme activity ([3]; FeSO4 2 mM, EDTA 2 mM) was 677 units/ml and the Enzyme activity ([3]; FeSO4 2 mM, EDTA 4 mM) was 672 units/ml. For the same molecule, the Enzyme activity ([3]; FeSO4 2 mM, EDTA 5 mM) was 669 units/ml, the Enzyme activity ([3]; FeSO4 2 mM, EDTA None) was 443 units/ml and the Enzyme activity ([3]; FeSO4 None, EDTA 2 mM) was 677 units/ml. The Enzyme activity ([3]; FeSO4 None, EDTA None) was 685 units/ml and the “yield of lysine conversion” value [4] was 98%.
